Assay results published in paper PMC3364340.

Tests used:
[1] = biological target: TrkA, on human TF1 erythroleukemia cells (human (endogenous in TF1)) (UniProt P04629)
[2] = biological target: p75NTR, endogenous in rat primary hippocampal neurons (rat (endogenous in rat hippocampal neurons)) (UniProt P07174)
Sequence of UniProt P07174 (P07174 30-425): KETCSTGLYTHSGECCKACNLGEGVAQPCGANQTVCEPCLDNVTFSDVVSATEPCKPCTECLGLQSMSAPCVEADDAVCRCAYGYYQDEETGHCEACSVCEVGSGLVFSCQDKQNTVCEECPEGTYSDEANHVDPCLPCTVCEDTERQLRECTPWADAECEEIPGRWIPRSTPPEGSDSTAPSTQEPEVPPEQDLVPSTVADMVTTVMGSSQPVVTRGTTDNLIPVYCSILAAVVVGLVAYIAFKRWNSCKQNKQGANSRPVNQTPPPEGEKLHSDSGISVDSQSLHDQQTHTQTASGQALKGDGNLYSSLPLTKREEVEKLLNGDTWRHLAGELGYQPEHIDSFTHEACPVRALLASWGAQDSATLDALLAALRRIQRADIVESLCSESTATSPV

Sequence of UniProt P04629 (P04629 33-796): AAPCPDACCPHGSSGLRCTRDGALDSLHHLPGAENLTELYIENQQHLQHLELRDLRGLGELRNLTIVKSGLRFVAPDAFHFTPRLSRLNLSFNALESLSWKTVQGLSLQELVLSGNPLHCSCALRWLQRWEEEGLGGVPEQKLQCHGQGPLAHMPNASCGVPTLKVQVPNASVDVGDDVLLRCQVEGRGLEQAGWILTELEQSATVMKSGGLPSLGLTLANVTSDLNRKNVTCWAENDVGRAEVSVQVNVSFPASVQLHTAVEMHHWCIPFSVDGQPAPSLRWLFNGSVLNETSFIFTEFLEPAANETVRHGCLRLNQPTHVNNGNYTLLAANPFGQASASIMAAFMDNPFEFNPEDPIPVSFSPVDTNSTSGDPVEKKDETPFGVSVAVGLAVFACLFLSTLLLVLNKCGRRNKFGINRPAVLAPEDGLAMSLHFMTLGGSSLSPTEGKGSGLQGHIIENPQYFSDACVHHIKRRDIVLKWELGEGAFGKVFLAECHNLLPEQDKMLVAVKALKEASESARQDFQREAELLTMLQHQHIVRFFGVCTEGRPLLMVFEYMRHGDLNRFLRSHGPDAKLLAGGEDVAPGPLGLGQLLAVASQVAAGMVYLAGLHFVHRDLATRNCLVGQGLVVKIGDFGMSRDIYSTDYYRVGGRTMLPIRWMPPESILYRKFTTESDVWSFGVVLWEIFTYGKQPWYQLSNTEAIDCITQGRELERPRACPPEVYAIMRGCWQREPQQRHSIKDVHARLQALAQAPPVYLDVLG

| Substance | proliferative index, proliferation of human TF1 cells expressing TrkA [1] [ng/mL] | c-jun Ser63 phosphorylation in hippocampal neurons (Western blot, site-specific anti-phospho c-jun antibody), reduction with respect to hNGF or hNGFP61S [2] [%] |
| --- | --- | --- |
| hNGFP61S, human NGF tagged with the single-residue epitope P61S (ligand) | 1.68 |  |
| hNGFP61S/R100E, double mutant of human NGF ("painless" hNGF) (ligand) | 1.89 | 30 |
| hNGFR100E, human NGF mutant R100E (from UniProt P01138 122-241) (ligand) | 1.28 | 30 |
